# Results taken from publication PMC7840605.
# Assays:
# [1] = biological target: SARS-CoV-2 spike (S) protein (SARS-CoV-2) (UniProt P0DTC2)
# [2] = biological target: SARS-CoV-2 spike (S) protein (SARS-CoV-2) (UniProt P0DTC2); remark: listed apart in the source
# [3] = biological target: SARS-CoV-2 spike (S) protein (SARS-CoV-2) (UniProt P0DTC2); remark: listed apart in the source
# [4] = biological target: SARS-CoV-2 S protein (RBD) (SARS-CoV-2) (UniProt P0DTC2); assay: ELISA; competitive inhibition ELISA: 1 μg/ml ACE2 coated in 0.01 M Tris pH 8.8; S (RBD) 1 μg/ml pre-incubated with HP-OVA or unmodified OVA at the indicated concentrations was added; antibody detection, absorbance at 450 nm
substance,measurement,setting,value
3-hydroxyphthalic anhydride-modified chicken ovalbumin (from UniProt P01012 1-386),IC50 against live SARS-CoV-2 in Vero E6 cells (CPE assay); blocks S with ACE2,[1],4780 nM
same,IC90 against live SARS-CoV-2 in Vero E6 cells (CPE assay); blocks S with ACE2,[1],12200 nM
same,IC50 of inhibition of SARS-CoV-2 S pseudovirus entry into 293T/ACE2 cells (luciferase); blocks S with ACE2,[2],700 nM
same,IC50 of inhibition of SARS-CoV-2 S pseudovirus entry into Vero E6 cells (luciferase); blocks S with ACE2,[2],1210 nM
same,IC50 of inhibition of S-mediated cell-cell fusion of 293T/SARS-CoV-2/EGFP and Huh 7 cells; blocks S with ACE2,[3],1540 nM
same,IC50 of inhibition of S-mediated cell-cell fusion of 293T/SARS-CoV-2/EGFP and Vero E6 cells; blocks S with ACE2,[3],1740 nM
same,IC50,[4],17800 nM
